Test results as given in PMC5425150.

Biological target: type II receptors on the cell surface of INA6 cells (human (endogenous in INA6))

Row | concentration for 50% rescue (IC50) from inhibition of INA6 cell proliferation induced by 10 nM Activin A, WST-1; competes with Activin A for the type II receptors | Molecule
1 | 62.5 nM | BMP2-L51PL100KN102D (ligand)
2 | 250 nM | Recombinant human BMP2 (wildtype) (ligand) QAKHKQRKRLKSSCKRHPLYVDFSDVGWNDWIVAPPGYHAFYCHGECPFPLADHLNSTNHAIVQTLVNSVNSKIPKACCVPTELSAISMLYLDENEKVVLKNYQDMVVEGCGCR
